Key:
[1] = target: Myc-GST融合蛋白(Myc标签与谷胱甘肽融合的蛋白); test: ELISA on coated Myc-GST (5 μg/mL), anti-His-HRP detection, heat tolerance test at 80℃
[2] = target: Myc-GST融合蛋白(Myc标签与谷胱甘肽融合的蛋白); test: ELISA on coated Myc-GST (5 μg/mL), anti-His-HRP detection, heat tolerance test at 90℃
[3] = target: Myc-GST融合蛋白(Myc标签与谷胱甘肽融合的蛋白); test: ELISA on coated Myc-GST (5 μg/mL), anti-His-HRP detection, heat tolerance test at 70℃

B1: 抗c-Myc标签单域重链抗体 (VHH)
VHH: QLQLVESGGGSVQPGGSLTLSCSASGFNISQYSVGWFREAPGEEREGISCLDIDGKITTFSDAIQGRFTIARDNAANMIYLHMDALNPLDTAVYRCVARWDCSRHDFITQKTATGIWGPGTQVTVSA
- OD450 [1]: 1.3 OD450
- OD450 [2]: 1.1 OD450
- OD450 [3]: 1.5 OD450

Reference: patent CN106914229A
